Assay results taken from US20140274782A1, “AFFINITY REAGENTS AND METHODS FOR DETECTION, PURIFICATION, AND PROTEOMIC ANALYSIS OF METHYLATED PROTEINS” (The Board of Trustees of the Leland Stanford Junior …, priority 2013, published 2014).

Experiments:
Assay in all cases: ProtoArray, GST-treated control array
Conditions in all cases: remark: other sources report otherwise
[1] = target: C12orf23-chromosome 12 open reading frame 23 (C12orf23) (human), Q8WUH6
[2] = target: UBE2D2-Ubiquitin-conjugating enzyme E2 D2 (human), P62837
[3] = target: YPEL5-yippee-like 5 (Drosophila) (YPEL5) (human), P62699
Chain of YPEL5-yippee-like 5 (Drosophila) (YPEL5) (human), P62699 (P62699 whole entry): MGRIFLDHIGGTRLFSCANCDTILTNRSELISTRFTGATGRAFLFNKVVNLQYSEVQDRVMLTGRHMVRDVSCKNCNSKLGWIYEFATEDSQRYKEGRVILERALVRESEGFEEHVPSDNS

Chain of UBE2D2-Ubiquitin-conjugating enzyme E2 D2 (human), P62837 (P62837 whole entry): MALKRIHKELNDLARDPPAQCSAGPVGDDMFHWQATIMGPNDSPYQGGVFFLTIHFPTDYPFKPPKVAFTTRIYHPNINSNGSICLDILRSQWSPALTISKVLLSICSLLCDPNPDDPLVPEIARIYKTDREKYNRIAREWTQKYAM

GST Average SNR [1]: 0.48 | GST Average SNR [2]: -0.383 | GST Average SNR [3]: -0.787
B1: 3× Flag-3×MBT (designed binder, not shown: a dimerising Fc or GST)
chain: EEWSSSQPATGEKKECWSWESYLEEQKAITAPVSLFQDSQAVTHNKNGFKLGMKLEGIDPQHPSMYFILTVAEVCGYRLRLHFDGYSECHDFWVNANSPDIHPAGWFEKTGHKLQPPKGYKEEEFSWSQYLRSTRAQAAPKHLFVSQSHSPPPLGFQVGMKLEAVDRMNPSLVCVASVTDVVDSRFLVHFDNWDDTYDYWCDPSSPYIHPVGWCQKQGKPLTPPQDYPDPDNFCWEKYLEETGASAVPTWAFKVRPPHSFLVNMKLEAVDRRNPALIRVASVEDVEDHRIKIHFDGWSHGYDFWIDADHPDIHPAGWCSKTGHPLQPPLGPREPSSASPGG
